5 molecules from patent US20180022816A1 (Genmab, published 2018) can be followed below.

Holding throughout (assay): cell-based or functional assay
Experiment [1] addresses T1, human epidermal growth factor receptor 2 (HER2), membrane-bound on tumor cells (AU565, A431, SK-BR-3) (human, UniProt P04626 23-1255).
Experiment [2] addresses T1, human epidermal growth factor receptor …. This is another data set of the same source.
Experiment [3] has the same target. This is another data set of the same source.

B1: HuMab 106 (antibody, V domains shown)
VH: EVQLVQSGAEVKKPGESLKISCKGSGYSFTRYWIGWVRQMPGKGLEWMGIIYPGDSDTRYSPSFQGQVTISADKSISTAYLQWSSLKASDTAMYYCARLTGDRGFDYYSGMDVWGQGTTVTVSS
VL: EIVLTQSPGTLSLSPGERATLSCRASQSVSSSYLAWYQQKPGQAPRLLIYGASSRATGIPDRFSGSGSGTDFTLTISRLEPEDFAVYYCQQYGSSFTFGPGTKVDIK
On to B1, for which, in experiment [1], the “EC50, fab-CypHer5E internalization assay, AU565 cells” value was determined as 0.0686 µg/mL and the “Maximal MFI, fab-CypHer5E internalization assay, AU565 cells” value (“Maximal MFI” below) was found to be 57400 MFI. Moreover, in experiment [2], the “% cells killed, AU565 cells, anti-kappa-ETA′-conjugated antibody” value (“% cells killed, AU565 cells” for short) came out at 59.1% and the “EC50 of killing, AU565 cells, anti-kappa-ETA′-conjugated antibody” value (from here on “EC50 of killing, AU565 cells”) is 0.108 µg/mL.

B2: HuMab 005 (antibody, human IgG1, V domains shown)
VH: EVQLVQSGAEVKKPGESLKISCKASGYSFHFYWIGWVRQMPGKGLEWMGSIYPGDSDTRYRPSFQGQVTISADKSISTAYLQWTSLKASDTAIYYCARQRGDYYYFYGMDVWGQGTTVTVSS
VL: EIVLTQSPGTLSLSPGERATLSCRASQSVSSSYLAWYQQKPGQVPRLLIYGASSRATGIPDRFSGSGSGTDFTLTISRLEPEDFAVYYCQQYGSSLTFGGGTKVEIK
As for B2, in experiment [1], the “EC50, fab-CypHer5E internalization assay, AU565 cells” value was 0.0214 µg/mL and the “Maximal MFI” value is 95100 MFI. In addition, in experiment [3], the “EC50 of killing, A431 cells, anti-kappa-ETA′-conjugated antibody” value was about 0.0101 µg/mL. In experiment [2], the “% cells killed, AU565 cells” value is 69.7% and the “EC50 of killing, AU565 cells” value stood at 0.0151 µg/mL.

B3: HuMab 060 (antibody, V domains shown)
VH: EVQLVQSGAEVKKPGESLKISCKGSGYRFTSYWIGWVRQMPGKGLEWMGSIYPGDSYTRNSPSFQGQVTISADKSIATAYLQWNSLKASDTAMYYCARHAGDFYYFDGLDVWGQGTTVTVSS
VL: not shown
Consider B3, for which, in experiment [1], the “EC50, fab-CypHer5E internalization assay, AU565 cells” value was 0.0362 µg/mL and the “Maximal MFI” value amounted to 68200 MFI. Also, the “EC50 of killing, A431 cells, anti-kappa-ETA′-conjugated antibody” value in experiment [3] is about 0.01 µg/mL. In addition, in experiment [2], the “% cells killed, AU565 cells” value worked out at 64.3% and the “EC50 of killing, AU565 cells” value is 0.0794 µg/mL.

B4: HuMab 111 (antibody, V domains shown)
VH: QVQLVQSGAEVKKPGSSVKVSCKASGGTFSSYGISWVRQAPGPGLEWMGRIIPILGIANYAQKFQGRVTITADKSTNTAYMELSSLRSEDTAVYYCARDQEYSSNWYYWGQGTLVTVSS
VL: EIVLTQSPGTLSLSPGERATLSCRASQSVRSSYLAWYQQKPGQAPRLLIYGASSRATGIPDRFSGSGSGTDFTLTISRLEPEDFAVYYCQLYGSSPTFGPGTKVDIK
As for B4, in experiment [1], the “EC50, fab-CypHer5E internalization assay, AU565 cells” value turned out to be 0.0352 µg/mL and the “Maximal MFI” value was 81700 MFI. In experiment [2], the “% cells killed, AU565 cells” value turned out to be 72% and the “EC50 of killing, AU565 cells” value was determined as 0.0242 µg/mL.

B5: HuMab 059 (antibody, V domains shown)
VH: QVQLVQSGAEVKKPGASVRVPCKASGYTFTRYGISWVRQAPGQGLEWMGWISAYNGKTYYAQKLQGRVTMTTDTSTSTAYMELRSLRSDDTAVYYCARSPLLWFEELYFDYWGQGTLVTVSS
VL: EIVLTQSPGTLSLSPGERATLSCRASQSVSSTYLAWYQQKPGQAPRLLIYGASSRATGIPDRFSGSGSGTDFTLTISRLEPEDFAVYYCQQYGTSLFTFGPGTKVDIK
Take B5: in experiment [1], the “EC50, fab-CypHer5E internalization assay, AU565 cells” value is 0.0148 µg/mL and the “Maximal MFI” value is 77100 MFI. Further, in experiment [2], the “% cells killed, AU565 cells” value worked out at 67% and the “EC50 of killing, AU565 cells” value amounted to 0.0677 µg/mL.
